Measured values taken from article PMC5399476.

Target: wild-type core streptavidin
Assay: SDS-PAGE with fluorescence scanning

stoichiometry N: 4
Substance: wild-type core streptavidin (natural protein)
